B1: PBXIP1 (parent)
chain: FGEDGIFRHDRLRFRDFVDALEDS
B2: ATL3 (parent)
chain: YGLQGGMAFLDKRLQVKEHQHEEI

Variants of: B1
Test: protein stability index of a GFP-peptide fusion (GPS, HEK-293T) (PSI 1-6); higher = more stable
Settings: c terminus: a fixed tail appended
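Further: lentivirally expressed fusions sorted by FACS into six bins by GFP to DsRed ratio, PSI derived from sequencing read proportions per bin multiplied by bin number.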

Protein stability index, by site and new letter:
E22: P 2.81, I 1.76, C 1.93, W 1.97, Q 2.24, A 2, G 2.05, K 2.08, R 2.38, L 2.97, F 1.65, S 2.71, M 1.89, H 2.37, T 2.08, V 2.2, D 2.26, Y 2.11, N 2.56
S24: R 2.76, M 2.2, A 2.21, P 2.51, G 2.32, F 1.8, D 3.5, K 3.08, V 2.43, L 2.32, C 3.48, N 3.15, I 2.29, Q 2.74, W 1.93, T 2.85, Y 1.78, E 2.24, H 2.66
D23: K 2.23, R 1.98, C 2.21, Y 2.62, Q 2.82, W 1.84, M 2.32, P 2.35, E 2.61, I 1.93, H 2.34, G 3.02, N 2.94, T 2.55, F 1.92, V 2.29, A 2.22, S 2.22, L 2.42
A20: K 3.6, L 2.09, V 2.49, N 2.78, M 2.13, Y 2.11, G 3.41, R 3.01, H 2.42, Q 2.95, T 2.21, S 3.18, F 2.38, P 3.06, E 3.25, I 2.28, W 2.46
L21: E 3.67, N 3.73, G 2.97, D 3.68, W 2.57, R 3.01, F 2.73, H 3, Y 3.18, K 3.3, I 3.07, M 3.12, P 3.65, V 2.94, T 3.13, S 3.24, Q 3.57, A 3.32, C 3.48

Variants of: B2
Test: as above
Settings: c terminus: a fixed tail appended

Protein stability index: each site, then its substitutions
G2: Q 2.11, H 2.3, K 3.22, L 1.93, A 2.28, F 2.31, D 3.52, E 3.28, M 2.39, R 3.49, W 2.37, P 2.63, I 1.66, Y 2.71, T 2.05, C 1.82, N 2.26, S 2.96
Q4: C 3.19, I 2.86, A 3.19, M 2.83, D 2.18, L 1.75, F 2.32, H 3.46, V 2.25, P 2.37, S 2.16, N 3.07, W 2.66, E 1.92, R 2.67, G 1.98, T 1.89, K 3.89
L3: C 2.03, Y 2.99, D 2.96, H 2.81, F 2.76, Q 2.73, N 2.45, K 2.93, G 2.46, W 3.64, R 3.69, A 1.92, T 2.86, M 2.31, P 2.55, E 2.37, I 2.2
Y1: A 4.57, R 4.07, V 3.92, K 4.26, D 5.03, M 4.29, T 4.08, G 4.73, L 3.38, I 4.07, F 2.51, Q 4.79, C 2.19, W 2.45, P 4.22, E 4.35, S 4.46, H 3.51, N 4.53
G5: C 1.92, A 1.74

— the supplement of paper PMC10567573
